Here are results for one substance from patent publication US6087166.

What all share (experiment): cell_activity
Data set [1] deals with TetR-GFY (tTA4) (/ HSV fusion). Conditions: relative to tTA; -Tc 37217, +Tc 25.
Data set [2] has as its system TetR-FFF (tTA2) (/ HSV fusion). Conditions: relative to tTA; -Tc 259556, +Tc 33.
For data set [3], the system named is TetR-FFFF (tTA1) (/ HSV fusion). Conditions: relative to tTA; -Tc 607264, +Tc 33.
Data set [4] has as its system TetR-VP16 (tTA) (/ HSV fusion). Conditions: luciferase -Tc 265410, +Tc 20.
Data set [5] concerns TetR-FGY (tTA5) (/ HSV fusion). Conditions: relative to tTA; -Tc 12080, +Tc 16.
For data set [6], the system named is TetR-FF (tTA3) (/ HSV fusion). Particulars: relative to tTA; -Tc 102828, +Tc 27.
For data set [7], the system named is TetR-GF (tTA6) (/ HSV fusion). Particulars: relative to tTA; -Tc 1500, +Tc 28.
Data set [8] concerns TetR-FG (tTA7) (/ HSV fusion). Conditions: relative to tTA; -Tc 88, +Tc 24.

With “PhCMV*-1 promoter (tet operators, luciferase reporter in HeLa X1/6)”, the activity turned out to be 14% in data set [1]; 98% in data set [2]; 230% in data set [3]; 100% in data set [4]; 4.6% in data set [5]; 39% in data set [6]. The activity in data set [7] was determined as 0.6%; in data set [8], 0.03%.
